Experimental data from paper doi:10.1101/2025.08.18.670960.

Biological target: UNC-119 tagged with the C-terminal fragment of Venus (C. elegans) (UniProt Q10658)
Assay: split reporter (BiFC, NanoBiT); BiFC in AWC neurons of wild-type animals: VC::UNC-119 with ODR-3::VN variants; read-out is percent of transgenic animals with signal; free VN as negative control

UniProt Q10658, sequence (Q10658 whole entry, the tested form may be a part): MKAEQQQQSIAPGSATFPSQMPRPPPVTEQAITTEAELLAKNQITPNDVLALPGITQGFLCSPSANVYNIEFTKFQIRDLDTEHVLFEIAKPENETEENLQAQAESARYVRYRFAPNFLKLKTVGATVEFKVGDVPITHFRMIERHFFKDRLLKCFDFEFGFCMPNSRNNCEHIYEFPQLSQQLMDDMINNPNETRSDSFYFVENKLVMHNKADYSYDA

percent of transgenic animals with BiFC signal [%]	Substance
81	ODR-3^WT tagged with the N-terminal Venus fragment (from UniProt Q18434 1-356) (natural protein)
51	ODR-3^A328P tagged with the N-terminal Venus fragment (from UniProt Q18434 1-356) (natural protein)
